From publication PMC6169973, “RAIDD mutations underlie the pathogenesis of thin lissencephaly (TLIS)” (PLoS ONE, 2018)

B1: PIDD DD (777-883) (domain or fragment, UniProt Q9HB75 777-883, looked up)
chain: LNLGDAETGFLTQSNLLSVAGRLGLDWPAVALHLGVSYREVQRIRHEFRDDLDEQIRHMLFSWAERQAGQPGAVGLLVQALEQSDRQDVAEEVRAVLELGRRKYQDS
notes: PIDD (p53-induced protein with a death domain), death domain, residues 777-883; also called PD-DD; PIDD death domain; source: E. coli BL21 (DE3) RILP, purified (Ni-NTA, size exclusion S-200)
B2: RAIDD DD (94-199), wild type (domain or fragment)
chain: not shown
notes: RAIDD (RIP-associated Ich-1/Ced-3 homologous protein with a death domain), death domain, residues 94-199; also called RD-DD; RAIDD death domain; source: E. coli BL21 (DE3) RILP, purified (Ni-NTA, size exclusion S-200)

Tests used:
[1] = target: T1, full-length RAIDD (1-199), wild type (UniProt P78560 1-199); experiment: SEC; RAIDD (full length, DD or mutant) mixed with a molar excess of PIDD DD, 30 min at room temperature; Superdex 200 HR 10/30 in 20 mM Tris-HCl pH 8.0, 150 mM NaCl; fractions on SDS-PAGE, Coomassie; settings: both partners purified
T1 construct: RAIDD, full length, residues 1-199 (CARD and DD); also called RD; wild-type full-length RAIDD; source: E. coli BL21 (DE3) RILP, purified (Ni-NTA, size exclusion S-200)
T1 sequence (P78560 whole entry, the tested form may be a part): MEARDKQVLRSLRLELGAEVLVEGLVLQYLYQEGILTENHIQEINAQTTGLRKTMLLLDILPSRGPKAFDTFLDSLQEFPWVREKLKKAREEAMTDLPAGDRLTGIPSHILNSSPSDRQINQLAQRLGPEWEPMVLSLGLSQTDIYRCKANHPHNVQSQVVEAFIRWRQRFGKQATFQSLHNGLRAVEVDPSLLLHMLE

[2] = target: B1; experiment: as above; settings: both partners purified

B1
binding result [1]: binds

B2
binding result [2]: binds
